These results are taken from paper PMC3903488, “Characterization of a Ginsenoside-Transforming β-glucosidase from Paenibacillus mucilaginosus and Its Application for Enhanced Production of Minor Ginsenoside F2” (PLoS ONE, 2014).

Substrate in the data set “purified protein”: O=[N+]([O-])c1ccc(O[C@@H]2O[C@H](CO)[C@@H](O)[C@H](O)[C@H]2O)cc1
Put plainly: purified protein. To be noted: 0.1-10.0 mM substrate, standard activity assay 50 mM sodium phosphate pH 7.5, 37 °C.

Substrate in data set [1]: CC(C)=CCC[C@](C)(O[C@@H]1O[C@H](CO[C@@H]2O[C@H](CO)[C@@H](O)[C@H](O)[C@H]2O)[C@@H](O)[C@H](O)[C@H]1O)[C@H]1CC[C@]2(C)[C@@H]1[C@H](O)C[C@@H]1[C@@]3(C)CC[C@H](O[C@@H]4O[C@H](CO)[C@@H](O)[C@H](O)[C@H]4O[C@@H]4O[C@H](CO)[C@@H](O)[C@H](O)[C@H]4O)C(C)(C)[C@@H]3CC[C@]12C
Description: initial velocity, non-linear regression. The data set is classed as biochemical, Paenibacillus mucilaginosus. To be noted: 0.2-5.0 mM substrate; assay buffer not given. The text has this: (§1) initial velocity, non-linear regression on BglPm

Substrate in data set [2]: CC(C)=CCC[C@](C)(O[C@@H]1O[C@H](CO)[C@@H](O)[C@H](O)[C@H]1O)[C@H]1CC[C@]2(C)[C@@H]1[C@H](O)C[C@@H]1[C@@]3(C)CC[C@H](O[C@@H]4O[C@H](CO)[C@@H](O)[C@H](O)[C@H]4O[C@@H]4O[C@H](CO)[C@@H](O)[C@H](O)[C@H]4O)C(C)(C)[C@@H]3CC[C@]12C
Description: initial velocity, non-linear regression. In kind it is biochemical, Paenibacillus mucilaginosus. Conditions: 0.2-5.0 mM substrate; assay buffer not given.
Excerpt: as §1

B1: BglPm (Paenibacillus mucilaginosus 3016) (protein)
chain: EYIFPQQFMFGSATAAYQVEGNNTNSDFWAEEHAEGSPYQDKSGDAVDHYRLYREDIALMASLGLKAYRFSIEWARIEPAPGQFSLSAIAHYRDVLQACYEHRLTPVVAMHHFSSPQWLMRFGGWGSEEVPERFAKYCEFVFQELGDLIPYVLTFNEVNLPVMLREVFSSIGIIPPVGIDGAAWTAPGWRASAAQLCGTTADRYVTFHMISDEPKIALLMEAHRRARQTIKRLQPNAKVGLSMALSDIQSVPGGEAWAQQKWQQYFEQYLPALEGDDFFGLQNYTREVYGPEGRVTPAADAELTQMKYEYYPEALGQVIRKVAKALTLPIFVTEHGVATDDDERRIEFIRRGLQGVHACLEEGIDVRGYLHWTTFDNFEWNAGYSMRFGLIGVDRTTQERTVKESARYLGRIASTKVL
notes: expressed in E. coli BL21(DE3)
As usually defined, the Km is the concentration of substrate that gives half-maximal velocity. One may read the Vmax as the rate approached at saturating substrate. The kcat is the number of substrate molecules converted per active site and unit of time at saturation. A word on the kcat/Km: it is the second-order rate constant that governs catalysis at low substrate concentration. B1: in the data set “purified protein”, the Michaelis-Menten constant (Km) was 3240 ± 390 µM, the Vmax worked out at 10.2 µmol/min/mg, the turnover number (kcat) is 8.13 s⁻¹ and the kcat/Km is 2560 M⁻¹ s⁻¹. Further, in data set [1], the Michaelis constant (Km) amounted to 384 ± 64 µM, the Vmax was determined as 0.369 µmol/min/mg, the kcat was 0.458 ± 0.018 s⁻¹ and the catalytic efficiency (kcat/Km) came to 1230 ± 250 M⁻¹ s⁻¹. Further, in data set [2], the Km was determined as 352 ± 53 µM, the maximum rate (Vmax) worked out at 0.484 µmol/min/mg, the turnover number (kcat) came out at 0.601 ± 0.066 s⁻¹ and the specificity constant (kcat/Km) was 1780 ± 460 M⁻¹ s⁻¹.
